Values of other authors, collected in US20240024386A1, “MICROBIOME MEDIATED INDUCTION OF IMMUNE TOLERANCE AND RESOLUTION OF INFLAMMATION” (INFINANT HEALTH, INC., priority 2020, published 2024).

System: COVID-19
Conditions: triple therapy with lopinavir—ritonavir and ribavirin

B1: IFNβ-1b: interferon beta-1b, used in triple therapy with lopinavir—ritonavir and ribavirin (protein, UniProt P01574 22-187, looked up, variant C17S)
Interferon beta: MSYNLLGFLQRSSNFQSQKLLWQLNGRLEYCLKDRMNFDIPEEIKQLQQFQKEDAALTIYEMLQNIFAIFRQDSSSTGWNETIVENLLANVYHQINHLKTVLEEKLEKEDFTRGKLMSSLHLKRYYGRILHYLKAKEYSHCAWTIVRVEILRNFYFINRLTGYLRN
modifications: lacks Met1; non-glycosylated
notes: interferon beta-1b, used in triple therapy with lopinavir—ritonavir and ribavirin
In the case of B1, the “period of viral shedding for COVID-19” value is given as “shortened”.
